Data set [1] concerns HeLa Kyoto. Briefly: solubility in G1/S (NP-40 vs SDS abundance) (log2 ratio); higher = more soluble. The settings on record: cell cycle stage: G1/S.
Data set [2] has as its system HeLa Kyoto. The experiment in a line: melting temperature (median over replicates), in situ; higher = more thermally stable.
Data set [3] deals with HeLa Kyoto. Briefly: solubility change mitosis vs G1/S (difference of NP-40 vs SDS log2 ratios) (log2 ratio difference); higher = more soluble in mitosis.
For data set [4], the system named is HeLa Kyoto. The experiment in a line: thermal stability score vs G1/S (z-score of summed log2 fold changes over temperatures); higher = more thermally stable than in G1/S.
The mark [5] stands for this setting: cell cycle stage: early G1 (4.5 h after nocodazole release).

The record followed here is the supplement of paper PMC5998384.
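For melting temperature (median over replicates), in situ in this document: HeLa Kyoto cells synchronized by double thymidine or nocodazole block, proteins quantified by TMT10plex mass spectrometry, three independent biological replicates.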
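For solubility change mitosis vs G1/S (difference of NP-40 vs SDS log2 ratios) in this document: synchronized HeLa Kyoto cells (double thymidine block for G1/S, nocodazole release for mitosis), protein amounts in NP-40 versus SDS lysates quantified by mass spectrometry, three biological replicates.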
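For solubility in G1/S (NP-40 vs SDS abundance) in this document: HeLa Kyoto cells arrested at G1/S by double thymidine block, proteins quantified by TMT10plex mass spectrometry in mild NP-40 versus SDS extracts, three biological replicates.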
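For thermal stability score vs G1/S (z-score of summed log2 fold changes over temperatures) in this document: synchronized HeLa Kyoto cells, proteins quantified by TMT10plex mass spectrometry, three biological replicates, mitosis taken 0.5 h after nocodazole release, G1/S directly after double thymidine block.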

In the case of “MEDLGENTMVLSTLRSLNNFISQRVEGGSGLDISTSAPGSLQMQYQQSMQLEERAEQIRSKSHLIQVEREKMQMELSHKRARVELERAASTSARNYEREVDRNQELLTRIRQLQEREAGAEEKMQEQLERNRQCQQNLDAASKRLREKEDSLAQAGETINALKGRISELQWSVMDQEMRVKRLESEKQELQEQLDLQHKKCQEANQKIQELQASQEARADHEQQIKDLEQKLSLQEQDAAIVKNMKSELVRLPRLERELKQLREESAHLREMRETNGLLQEELEGLQRKLGRQEKMQETLVGLELENERLLAKLQSWERLDQTMGLSIRTPEDLSRFVVELQQRELALKDKNSAVTSSARGLEKARQQLQEELRQVSGQLLEERKKRETHEALARRLQKRVLLLTKERDGMRAILGSYDSELTPAEYSPQLTRRMREAEDMVQKVHSHSAEMEAQLSQALEELGGQKQRADMLEMELKMLKSQSSSAEQSFLFSREEADTLRLKVEELEGERSRLEEEKRMLEAQLERRALQGDYDQSRTKVLHMSLNPTSVARQRLREDHSQLQAECERLRGLLRAMERGGTVPADLEAAAASLPSSKEVAELKKQVESAELKNQRLKEVFQTKIQEFRKACYTLTGYQIDITTENQYRLTSLYAEHPGDCLIFKATSPSGSKMQLLETEFSHTVGELIEVHLRRQDSIPAFLSSLTLELFSRQTVA [MAD1L1]”, the “solubility in G1/S (log2)” value in data set [1] worked out at 0.361. The values for the melting temperature in data set [2] (cell cycle stage: G1/S) and in data set [2] (cell cycle stage: mitosis) were 48.4 °C and 47.8 °C, respectively. The “solubility change mitosis (log2)” value in data set [3] was -0.0768. Further, the thermal stability score in data set [4] (setting [5]) stood at 0.414; in data set [4] (cell cycle stage: mitosis), 0.454.

Regarding “MEDPQSKEPAGEAVALALLESPRPEGGEEPPRPSPEETQQCKFDGQETKGSKFITSSASDFSDPVYKEIAITNGCINRMSKEELRAKLSEFKLETRGVKDVLKKRLKNYYKKQKLMLKESNFADSYYDYICIIDFEATCEEGNPPEFVHEIIEFPVVLLNTHTLEIEDTFQQYVRPEINTQLSDFCISLTGITQDQVDRADTFPQVLKKVIDWMKLKELGTKYKYSLLTDGSWDMSKFLNIQCQLSRLKYPPFAKKWINIRKSYGNFYKVPRSQTKLTIMLEKLGMDYDGRPHCGLDDSKNIARIAVRMLQDGCELRINEKMHAGQLMSVSSSLPIEGTPPPQMPHFRK [ERI1]”, the “solubility in G1/S (log2)” value in data set [1] is -0.0987. In addition, the melting temperature worked out at 51 °C in data set [2] (cell cycle stage: G1/S) and 49.9 °C in data set [2] (cell cycle stage: mitosis). In data set [3], the “solubility change mitosis (log2)” value is -0.00712. Besides, the thermal stability score in data set [4] (setting [5]) is -0.616; in data set [4] (cell cycle stage: mitosis), 0.0498.

In the case of “MEDPTLYIVERPLPGYPDAEAPEPSSAGAQAAEEPSGAGSEELIKSDQVNGVLVLSLLDKIIGAVDQIQLTQAQLEERQAEMEGAVQSIQGELSKLGKAHATTSNTVSKLLEKVRKVSVNVKTVRGSLERQAGQIKKLEVNEAELLRRRNFKVMIYQDEVKLPAKLSISKSLKESEALPEKEGEELGEGERPEEDAAALELSSDEAVEVEEVIEESRAERIKRSGLRRVDDFKKAFSKEKMEKTKVRTRENLEKTRLKTKENLEKTRHTLEKRMNKLGTRLVPAERREKLKTSRDKLRKSFTPDHVVYARSKTAVYKVPPFTFHVKKIREGQVEVLKATEMVEVGADDDEGGAERGEAGDLRRGSSPDVHALLEITEESDAVLVDKSDSD [PTRF]”, the “solubility in G1/S (log2)” value in data set [1] was -0.215. The melting temperature came to 54.4 °C in data set [2] (cell cycle stage: G1/S) and 52.4 °C in data set [2] (cell cycle stage: mitosis). Moreover, the “solubility change mitosis (log2)” value in data set [3] came out at 0.094. Also, the results for the thermal stability score in data set [4] (setting [5]) and in data set [4] (cell cycle stage: mitosis) were -3.64 and -4.73, respectively.

On to “MEDRLHMDNGLVPQKIVSVHLQDSTLKEVKDQVSNKQAQILEPKPEPSLEIKPEQDGMEHVGRDDPKALGEEPKQRRGSASGSEPAGDSDRGGGPVEHYHLHLSSCHECLELENSTIESVKFASAENIPDLPYDYSSSLESVADETSPEREGRRVNLTGKAPNILLYVGSDSQEALGRFHEVRSVLADCVDIDSYILYHLLEDSALRDPWTDNCLLLVIATRESIPEDLYQKFMAYLSQGGKVLGLSSSFTFGGFQVTSKGALHKTVQNLVFSKADQSEVKLSVLSSGCRYQEGPVRLSPGRLQGHLENEDKDRMIVHVPFGTRGGEAVLCQVHLELPPSSNIVQTPEDFNLLKSSNFRRYEVLREILTTLGLSCDMKQVPALTPLYLLSAAEEIRDPLMQWLGKHVDSEGEIKSGQLSLRFVSSYVSEVEITPSCIPVVTNMEAFSSEHFNLEIYRQNLQTKQLGKVILFAEVTPTTMRLLDGLMFQTPQEMGLIVIAARQTEGKGRGGNVWLSPVGCALSTLLISIPLRSQLGQRIPFVQHLMSVAVVEAVRSIPEYQDINLRVKWPNDIYYSDLMKIGGVLVNSTLMGETFYILIGCGFNVTNSNPTICINDLITEYNKQHKAELKPLRADYLIARVVTVLEKLIKEFQDKGPNSVLPLYYRYWVHSGQQVHLGSAEGPKVSIVGLDDSGFLQVHQEGGEVVTVHPDGNSFDMLRNLILPKRR [HLCS]”, for which, in data set [1], the “solubility in G1/S (log2)” value is -0.0872. Besides, the melting temperature in data set [2] (cell cycle stage: G1/S) was 50.8 °C; in data set [2] (cell cycle stage: mitosis), 51 °C. Besides, in data set [3], the “solubility change mitosis (log2)” value is -0.216. In addition, the thermal stability score is -0.0478 in data set [4] (setting [5]) and 0.641 in data set [4] (cell cycle stage: mitosis).

As for “MEDYEQELCGVEDDFHNQFAAELEVLAELEGASTPSPSGVPLFTAGRPPRTFEEALARGDAASSPAPAASVGSSQGGARKRQVDADLQPAGSLPHAPRIKRPRLQVVKRLNFRSEEMEEPPPPDSSPTDITPPPSPEDLAELWGHGVSEAAADVGLTRASPAARNPVLRRPPILEDYVHVTSTEGVRAYLVLRADPMAPGVQGSLLHVPWRGGGQLDLLGVSLASLKKQVDGERRERLLQEAQKLSDTLHSLRSGEEEAAQPLGAPEEEPTDGQDASSHCLWVDEFAPRHYTELLSDDFTNRCLLKWLKLWDLVVFGHERPSRKPRPSVEPARVSKEATAPGKWKSHEQVLEEMLEAGLDPSQRPKQKVALLCGPPGLGKTTLAHVIARHAGYSVVEMNASDDRSPEVFRTRIEAATQMESVLGAGGKPNCLVIDEIDGAPVAAINVLLSILNRKGPQEVGPQGPAVPSGGGRRRRAEGGLLMRPIICICNDQFAPSLRQLKQQAFLLHFPPTLPSRLVQRLQEVSLRQGMRADPGVLAALCEKTDNDIRACINTLQFLYSRGQRELSVRDVQATRVGLKDQRRGLFSVWQEVFQLPRAQRRRVGQDPALPADTLLLGDGDAGSLTSASQRFYRVLHAAASAGEHEKVVQGLFDNFLRLRLRDSSLGAVCVALDWLAFDDLLAGAAHHSQSFQLLRYPPFLPVAFHVLFASSHTPRITFPSSQQEAQNRMSQMRNLIQTLVSGIAPATRSRATPQALLLDALCLLLDILAPKLRPVSTQLYSTREKQQLASLVGTMLAYSLTYRQERTPDGQYIYRLEPNVEELCRFPELPARKPLTYQTKQLIAREIEVEKMRRAEASARVENSPQVDGSPPGLEGLLGGIGEKGVHRPAPRNHEQRLEHIMRRAAREEQPEKDFFGRVVVRSTAVPSAGDTAPEQDSVERRMGTAVGRSEVWFRFNEGVSNAVRRSLYIRDLL [CHTF18]”, the “solubility in G1/S (log2)” value in data set [1] was found to be 0.136. Moreover, the figures for the melting temperature in data set [2] (cell cycle stage: G1/S) and in data set [2] (cell cycle stage: mitosis) were 47 °C and 49.3 °C, respectively. Besides, the “solubility change mitosis (log2)” value in data set [3] was -0.209. Besides, the thermal stability score in data set [4] (setting [5]) turned out to be 1.86; in data set [4] (cell cycle stage: mitosis) it was 2.46.
